This assay concerns the target thrombin (endogenous, in developing blood clots of mice) (mouse) (UniProt P19221). Description: cell-based or functional assay.

The values that follow come from patent US20130078188A1.

Sequence of hirudin (P01050 whole entry): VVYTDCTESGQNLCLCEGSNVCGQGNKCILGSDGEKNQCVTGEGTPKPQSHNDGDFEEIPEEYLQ

In the case of hirudin (from UniProt P01050 1-65), the inhibition of the Cy5/Cy7 ratio increase of … in tail clots of mice is over 90%.
